Patent US20250034601

Assays:
[1] = molecular target: T1, MBP-tagged PhBSβ (beta subunit of Petunia hybrida benzaldehyde synthase)
T1 chain: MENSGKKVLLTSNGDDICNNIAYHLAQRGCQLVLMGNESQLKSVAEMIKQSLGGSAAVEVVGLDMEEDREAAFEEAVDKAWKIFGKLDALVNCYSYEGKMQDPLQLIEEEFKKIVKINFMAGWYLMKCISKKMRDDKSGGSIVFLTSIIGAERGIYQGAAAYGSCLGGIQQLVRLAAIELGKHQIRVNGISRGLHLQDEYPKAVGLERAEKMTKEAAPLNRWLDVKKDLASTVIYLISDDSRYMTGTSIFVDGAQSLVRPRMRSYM

[2] = molecular target: T2, MBP-tagged PdBSβ (beta subunit of Prunus dulcis benzaldehyde synthase)
T2 chain: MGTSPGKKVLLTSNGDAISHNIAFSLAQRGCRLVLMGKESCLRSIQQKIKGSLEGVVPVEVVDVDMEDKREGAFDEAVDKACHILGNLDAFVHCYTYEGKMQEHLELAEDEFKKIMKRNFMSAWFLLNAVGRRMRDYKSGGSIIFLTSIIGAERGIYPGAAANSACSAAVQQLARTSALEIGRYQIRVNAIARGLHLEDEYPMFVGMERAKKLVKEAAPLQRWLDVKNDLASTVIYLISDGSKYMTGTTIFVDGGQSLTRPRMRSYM

[3] = molecular target: T3, MBP-tagged SlBSβ (beta subunit of Solanum lycopersicum benzaldehyde synthase)
T3 chain: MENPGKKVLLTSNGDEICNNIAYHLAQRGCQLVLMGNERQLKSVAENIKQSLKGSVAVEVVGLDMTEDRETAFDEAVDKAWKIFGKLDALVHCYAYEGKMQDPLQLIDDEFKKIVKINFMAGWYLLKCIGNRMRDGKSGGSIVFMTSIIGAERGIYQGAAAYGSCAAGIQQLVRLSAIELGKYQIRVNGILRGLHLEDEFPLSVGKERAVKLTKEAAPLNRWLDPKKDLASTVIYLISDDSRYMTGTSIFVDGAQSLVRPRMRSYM

[4] = molecular target: T4, MBP-tagged AtBSβ (beta subunit of Arabidopsis thaliana benzaldehyde synthase)
T4 chain: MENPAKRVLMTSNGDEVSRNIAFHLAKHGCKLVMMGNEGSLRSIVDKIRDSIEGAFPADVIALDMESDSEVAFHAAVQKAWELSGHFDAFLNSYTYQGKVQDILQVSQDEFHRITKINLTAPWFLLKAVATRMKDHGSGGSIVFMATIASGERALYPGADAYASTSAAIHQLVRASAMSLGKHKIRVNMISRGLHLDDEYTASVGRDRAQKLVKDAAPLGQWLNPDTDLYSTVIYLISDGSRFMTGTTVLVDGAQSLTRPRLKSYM

B1: MBP-tagged SlBSα (alpha subunit of Solanum lycopersicum benzaldehyde synthase) (protein)
chain: METHAKSVRQLEPWGELAGKVVMVTGASSGIGRDFCSDLSKAGCRIIAAARRIDRLQSLCDEINSNSSNGSTKSSQDLRAVAIELDVSANGSAIEAAVQKAWDAFGRIDGLVNNAGFRGSVLSPLELSEEEWEKIHKTNLRGAWLVTKYVCMHMRAANQGGSIINISSIAGINRGQLPGSLAYTSSKEALNSITKVLALELGPYKIRVNSISPGLFKSEITEGLIQKDWIKNIELRTIPLRTHGTSHPALTSVVRYLIHDSSEYVSGNMFIVDAGATLPGVPIFSSL
BS activity of hybrid enzyme relative to SlBS [1]: activities of SlBSα-PhBSβ and SlBSα-PdBSβ were 6.5-fold lower and 2.7-fold higher, respectively, as compared with SlBS | BS activity of hybrid enzyme relative to SlBS [2]: activities of SlBSα-PhBSβ and SlBSα-PdBSβ were 6.5-fold lower and 2.7-fold higher, respectively, as compared with SlBS | benzaldehyde synthase activity (GC-MS) [3]: benzaldehyde synthases from all three organisms (i.e., Solanum lycopersicum, Prunus dulcis, and Arabidopsis thaliana) showed activity only when two purified recombinant subunits were combined | BS activity of cross-species heterodimers (subunits mixed 1:1) [4]: only the AtBSβ subunit was not able to produce active enzymes upon interaction with PhBSα and SlBSα

B2: MBP-tagged AtBSα (alpha subunit of Arabidopsis thaliana benzaldehyde synthase) (protein)
chain: MANQVADHLEPWRHLHGKVVMVTGASSGLGREFCLDLAKAGCRIVAAARRIDRLQSVCDEINQLTVTAPSSSSSSSSVNGPGSSRAVAVELDISADGPAIEKSVNKAWDAFGRIDALVNNAGVRGNVSSSLELSEEEWNNVFKTNLTGSWLVSKYVSIRMRDADQGGSIINVSSIAGLHRGYLPGAVAYNCSKAGVNTLAKVMAMELGVHKIRVNAISPGLFRSEITEGLMKKDWLHNVAMKTVPLRTFGTSDPALTSLVRYLVHDSSEYVSGNVYIVDAGATLPGVPIFSAL
BS activity of hybrid enzyme relative to AtBS [1]: interactions of the three tested β subunits with AtBSα promoted activities of hybrid proteins | BS activity of hybrid enzyme [2]: the AtBSα-PdBSβ hybrid was as active as PdBS | BS activity of hybrid enzyme relative to AtBS [2]: increasing activity from 4.6- to 7.8-fold in AtBSα-SlBSβ and AtBSα-PdBSβ, respectively, relative to AtBS | BS activity of hybrid enzyme relative to AtBS [3]: increasing activity from 4.6- to 7.8-fold in AtBSα-SlBSβ and AtBSα-PdBSβ, respectively, relative to AtBS | benzaldehyde synthase activity (GC-MS) [4]: benzaldehyde synthases from all three organisms (i.e., Solanum lycopersicum, Prunus dulcis, and Arabidopsis thaliana) showed activity only when two purified recombinant subunits were combined

B3: MBP-tagged PdBSα (alpha subunit of Prunus dulcis benzaldehyde synthase) (protein)
chain: MANQVADHLEPWRHLHGKVVMVTGASSGLGREFCLDLAKAGCRIVAAARRIDRLQSVCDEINQLTVTAPSSSSSSSSVNGPGSSRAVAVELDISADGPAIEKSVNKAWDAFGRIDALVNNAGVRGNVSSSLELSEEEWNNVFKTNLTGSWLVSKYVSIRMRDADQGGSIINVSSIAGLHRGYLPGAVAYNCSKAGVNTLAKVMAMELGVHKIRVNAISPGLFRSEITEGLMKKDWLHNVAMKTVPLRTFGTSDPALTSLVRYLVHDSSEYVSGNVYIVDAGATLPGVPIFSAL
BS activity of hybrid enzyme relative to PdBS [1]: the activities of hybrid enzymes comprising PdBSα were up to 2.5-fold lower than that of PdBS enzyme | benzaldehyde synthase activity (GC-MS) [2]: benzaldehyde synthases from all three organisms (i.e., Solanum lycopersicum, Prunus dulcis, and Arabidopsis thaliana) showed activity only when two purified recombinant subunits were combined | BS activity of hybrid enzyme relative to PdBS [3]: the activities of hybrid enzymes comprising PdBSα were up to 2.5-fold lower than that of PdBS enzyme

B4: MBP-PhBSα (maltose binding protein-tagged alpha subunit of Petunia hybrida benzaldehyde synthase) (protein)
chain: MEKQTQARFLEPWRDLKGKVVMVTGASSGIGLDLCLDLAKAGCKIIAAARRVDRLKSLCNQINAAADDDDDNNRAVAVELDVSANGDAIEAAVKEAWGAFGRIDALVNNAGVRGTVHSPLELTEEECHNTFRTNLTGTWLVSKYVCKFMRDAKQGGSVINISSIAGLNRGQLPGGLAYVSSKGAVNMVTKVMALELGVDKIRVNSISPGLFKSEITQGLIQKEWLNNVAMRTIPLRTHGNSADPALTSVVRYLIHDSSEYVSGNLFIVDAGATLPGVPIFSSL
benzaldehyde synthase activity (benzoyl-CoA + NADPH, GC-MS) [1]: Neither of the two purified recombinant proteins displayed benzaldehyde synthase activity when tested alone ... however, benzaldehyde was efficiently formed when the two subunit proteins were mixed in equal amounts (e.g., a 1:1 ratio) | BS activity of cross-species heterodimers (subunits mixed 1:1) [2]: interactions of PdBSβ and SlBSβ with PhBSα resulted in hybrid enzymes with activities almost identical to that of PhBS | BS activity of cross-species heterodimers (subunits mixed 1:1) [3]: interactions of PdBSβ and SlBSβ with PhBSα resulted in hybrid enzymes with activities almost identical to that of PhBS | BS activity of cross-species heterodimers (subunits mixed 1:1) [4]: only the AtBSβ subunit was not able to produce active enzymes upon interaction with PhBSα and SlBSα
